B1: chimeric human-mouse MAb E87 (human IgG1), non-modified (antibody, V domains shown)
VH: QVQLQQPGADLVRPGTSVKLSCKASGYTFTIYWMHWVKQRPGQGLEWIGVIDPSAGYTNYSQNFKDKATLTVDTSSSTAYMQLNSLTSEDSAVYYCARHGHYFGTSYWYFDVWGTGTTVTVSS
VL: DIVMSQSPSSLAVSVGEKVTMRCKSSQSLLYSRNQKNYLAWYQQKPGQSPKVLIYWASTRESGVPDRFTGSGSGTDFTLTISSVKTEDLSVYYCQQYYSYPFTFGSGTKLEIK
notes: source: HEK-293T, transfected, purified from supernatant (protein A)
B2: chimeric human-mouse MAb E87 N297Q (human IgG1, aglycosylated) (antibody, V domains shown)
VH: B1 VH
VL: B1 VL
notes: as for B1
B3: chimeric human-mouse MAb E28 (human IgG1), non-modified (antibody, V domains shown)
VH: QIQLVQSGPELKKPGETVKISCKASGYTFTDYSMHWVKQTPGKGLKWLGWINPKTGEPTYVDDFKGRFAFYLETSSSTAYLQITNLKNEDTATYFCARGYDYYSVDYWGQGTLVTVSS
VL: DIQMTQTTSSLSASLGARVTISCRANQDINNYLHWYQQKPDGTIKLLVYYTSGLHSGVPSRFIGSGSGTDYSLTITNLEQEDIATYFCQQGNTLPLTFGAGTKLELK
notes: as for B1
B4: chimeric human-mouse MAb E28 N297Q (human IgG1, aglycosylated) (antibody, V domains shown)
VH: B3 VH
VL: B3 VL
notes: as for B1
B5: human MAb 82.11 LALA (IgG1) (antibody, V domains shown)
VH: QAHLVESGGGVVQPGRSLRLSCAASAFNFSTNAMHWVRQAPGKGLEWVAVISYDGSHKYYADSVKGRFTISRDNSKNTLYLQMNSLRAADTAVYYCATVGVLTWPVNAEYFHHWGQGSLVSVSS
VL: QSVLTQPPSVSGAPGQRVTISCTGSSSNIGAGYDVHWYQQLPGTAPKLLICGNNNRPSGVPDRFSGSKSGTSASLAITGLQAEDEADYYCQSYDSSLTGVVFGGGTKLTVL
notes: source: HEK-293T, purified (protein A, size-exclusion chromatography)
B6: chimeric human-mouse MAb E76 (human IgG1), non-modified (antibody, V domains shown)
VH: QVTLKESGPGILQSSQTLSLTCSFSGFSLSTSSMGVSWIRQPSGKGLEWLAHIYWDDDKRYSPSLKSRLTISKDTSRNQVFLKITSVENVDSATYYCARKDGYVPYSLDYWGQGISVTVSS
VL: DIVMTQSHKFMSTSVGDRVSISCKASQAVGTAVAWYQQKPGQSPKLLIYWASTRHTGVPDRFTGSGSGTDFTLTINNVQSEDLADYFCHQYTSYPLTFGTGTKLELK
notes: as for B1
B7: chimeric human-mouse MAb E76 N297Q (human IgG1, aglycosylated) (antibody, V domains shown)
VH: B6 VH
VL: B6 VL
notes: as for B1
B8: human MAb 87.1 LALA (IgG1) (antibody, V domains shown)
VH: EVQLVESGGGLVQPGRSLRLSCAASGFTFDDYAMFWVRQAPGKGLEWISGISWNSATIGYADSVKGRFTISRDNAKKSLDLQMNSLRPDDTALYYCAKGGPRGLQLLSSWVDYWGQGTLVTVSS
VL: DIQMTQSPSSLSASVGDRVTITCRASQDIRRYLNWYQQRPGRVPQLLIYTTSTLQSGVPSRFSGSGSVTDFTLTISSLQPEDFGTYYCQQSYSPPHTFGQGTKLEIK
notes: as for B5
B9: chimeric human-mouse MAb E44 (human IgG1), non-modified (antibody, V domains shown)
VH: QVQLKESGPGLVAPSQSLSITCTVSGFSLTSYGVDWVRQSPGKGLEWLGVIWGAGSTNYNSAFRSRLSISKDNSKSQVFLKMNSLQTDDTAMYYCASGTGTGAMDYWGQGTSVTVSS
VL: DIVLTQSPATLSVTPGDSVSLSCRASQSISNNLHWYQQKSHESPRLLIFYSSQSISGIPSRFSGSGSGTDFTLRINSVETEDFGMYFCQQSNNWPHTFGRGTKLDMK
notes: as for B1
B10: chimeric human-mouse MAb E44 N297Q (human IgG1, aglycosylated) (antibody, V domains shown)
VH: B9 VH
VL: B9 VL
notes: as for B1
B11: chimeric human-mouse MAb E60 (human IgG1), non-modified (antibody, V domains shown)
VH: EVQVQQSGPELVTPGASVKISCKTSGYTFTEYTVHWVKQSHGKSLEWIGGINPTSGGTNYNQRFRGKATLTVDRSSSTAYMELRSLTSEDSAVYFCAGTLYGYPFDFWGQGTTLTVSS
VL: DILMTQSPSSMSVSLGDSVSITCHASQGISGNIGWLQQKPGKSFKGLIYHGTNLEEGVPSRFSGSGSGADYSLTISSLESEDFADYYCVQYGQFPPTFGGGTKLEIK
notes: also called intact E60; E60 parent; source: HEK-293T, transfected, purified from supernatant (protein A)
B12: chimeric human-mouse MAb E60 N297Q (human IgG1, aglycosylated) (antibody, V domains shown)
VH: B11 VH
VL: B11 VL
notes: also called modified E60; source: HEK-293T, transfected, purified from supernatant (protein A)
B13: chimeric human-mouse MAb E18 (human IgG1), non-modified (antibody, V domains shown)
VH: QIQLVQSGPELKKPGETVKISCKASGYTFTDYSMHWVKQAPGKGLKWMGWFNTETGEPTYADDFKGRFAFSLETSASTAFLQINNLKNEDTATYFCARGGDFYSVDYWGQGTSVTVSS
VL: DIQMTQTTSSLSASLGDRVTISCRASQDITNYLNWYQQKPDGTVKLLIYYTSGLHSGVPSRFSGSGSGTDYSLTISNLEQEDIATYFCQQGNTLPPTFGGGTKLEIK
notes: as for B1
B14: chimeric human-mouse MAb E18 N297Q (human IgG1, aglycosylated) (antibody, V domains shown)
VH: B13 VH
VL: B13 VL
notes: as for B1

The test has as its target T1, DENV2 D2S10 envelope (E) protein on virions (dengue virus 2 (DENV2), strain D2S10).
T1 construct: also called DENV2 virions
The test can be described thus: ELISA. The conditions noted are these: one partner purified. (In general: In an ELISA, binding on a coated surface is turned into a signal by an enzyme label.)
Molecule B1 came in with a Kd of 1.07 nM. B2: the Kd stood at 1.43 nM. Next, B3: 2.7 nM; B4: 2.88 nM; B5: 0.91 nM. Next, B6: 0.84 nM; B7: 1.1 nM. For the molecule B8, the Kd worked out at 0.34 nM. Next, B9: 0.14 nM; B10: 0.84 nM.

For B11, the Kd stood at 1.14 nM. The molecule B12 had a Kd of 1.18 nM. The figure for B13 is 2.74 nM. The figure for B14 is 3.46 nM.

Usually Kd stands for the concentration at which binding is half-saturated. A high value points to lower affinity.

(Values after PMC3573116 (PLoS Pathogens, 2013).)
